The values below come from publication PMC11551757, “Phylogenomic instructed target analysis reveals ELAV complex binding to multiple optimally spaced U-rich motifs”.

Data set [1] concerns the target T1, ELAV (rELAV) (Drosophila melanogaster?) (UniProt P16914).
T1 sequence: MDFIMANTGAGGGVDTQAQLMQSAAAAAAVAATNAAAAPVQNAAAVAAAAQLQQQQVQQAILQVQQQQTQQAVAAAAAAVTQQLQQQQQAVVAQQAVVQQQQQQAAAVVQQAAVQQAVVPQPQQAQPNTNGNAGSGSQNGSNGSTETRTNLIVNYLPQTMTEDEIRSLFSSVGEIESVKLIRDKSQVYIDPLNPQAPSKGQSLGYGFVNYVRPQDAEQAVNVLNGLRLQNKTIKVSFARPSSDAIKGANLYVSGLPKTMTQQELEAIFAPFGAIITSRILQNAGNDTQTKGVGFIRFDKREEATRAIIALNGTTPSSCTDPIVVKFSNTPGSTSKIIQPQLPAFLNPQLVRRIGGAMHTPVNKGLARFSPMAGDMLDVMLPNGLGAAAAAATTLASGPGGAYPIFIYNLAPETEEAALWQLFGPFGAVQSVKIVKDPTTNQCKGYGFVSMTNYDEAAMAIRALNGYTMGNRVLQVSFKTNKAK
The data set is described as follows: EMSA. Conditions: EMSA: 50 mM Tris-HCl pH 7.5, 60 mM NaCl, 25 ug/ml tRNA, 0.5 mM DTT, 50 ug/ml acetylated BSA, 20 min; 4-6% native gel in 0.5x TBE at 4 C. Footprinting: …. (In general: In EMSA bound probe runs differently from free probe, usually more slowly.)

The target of data set [2] is T2, ELAV (rELAV) (UniProt P16914 1-483).
T2 sequence: T1 sequence
The data set is described as follows: EMSA; EMSA: 50 mM Tris-HCl pH 7.5, 60 mM NaCl, 25 ug/ml tRNA, 0.5 mM DTT, 50 ug/ml acetylated BSA, 20 min; 4-6% native gel in 0.5x TBE at 4 C. Footprinting: complexes formed as for EMSA, 15 min at room temperature. Conditions: protein: recombinant; tags: GST tag, cleaved off with PreScission protease.

Broadly, the Kd is a measure of binding affinity in units of concentration. Read a low Kd as a tighter complex. In the data set with ELAV (rELAV) [1], 5PtaseI RNA returned a dissociation constant (Kd) of 24 nM.

In the data set with ELAV (rELAV) [1], CG4662 RNA registered a dissociation constant (Kd) of 80 nM.

Ect4 RNA returned a Kd with ELAV (rELAV) [1] of 100 nM. This Kd and that of the molecule before are within 1.5-fold of each other.

In the data set with ELAV (rELAV) [1], Teh2 RNA showed an equilibrium dissociation constant (Kd) of 430 nM. Against the preceding molecule, the Kd is about 4.3-fold higher.

B1: M7H A(CU)2 in m3r (ssRNA)
RNA: GAAGCUAUUAUACAUUUUAUCUUAUAACUCUAUACUUUAUGUU
Regarding B1, the binding signal with ELAV (rELAV) [2] is 2.5 fold lower affinity than M7H.
